Laboratory results reported in patent EP4751739A1, “ANTIBODY-DRUG CONJUGATE TARGETING C-MET AND MEDICAL USE THEREOF” (Jiangsu Hengrui Pharmaceuticals Co., Ltd., priority 2023, dated 2025).

Molecular target: human c-Met on tumor cell lines (human) (UniProt P08581)
Assay: cell-based or functional assay

human c-Met on tumor cell lines (human), sequence (P08581 25-1390): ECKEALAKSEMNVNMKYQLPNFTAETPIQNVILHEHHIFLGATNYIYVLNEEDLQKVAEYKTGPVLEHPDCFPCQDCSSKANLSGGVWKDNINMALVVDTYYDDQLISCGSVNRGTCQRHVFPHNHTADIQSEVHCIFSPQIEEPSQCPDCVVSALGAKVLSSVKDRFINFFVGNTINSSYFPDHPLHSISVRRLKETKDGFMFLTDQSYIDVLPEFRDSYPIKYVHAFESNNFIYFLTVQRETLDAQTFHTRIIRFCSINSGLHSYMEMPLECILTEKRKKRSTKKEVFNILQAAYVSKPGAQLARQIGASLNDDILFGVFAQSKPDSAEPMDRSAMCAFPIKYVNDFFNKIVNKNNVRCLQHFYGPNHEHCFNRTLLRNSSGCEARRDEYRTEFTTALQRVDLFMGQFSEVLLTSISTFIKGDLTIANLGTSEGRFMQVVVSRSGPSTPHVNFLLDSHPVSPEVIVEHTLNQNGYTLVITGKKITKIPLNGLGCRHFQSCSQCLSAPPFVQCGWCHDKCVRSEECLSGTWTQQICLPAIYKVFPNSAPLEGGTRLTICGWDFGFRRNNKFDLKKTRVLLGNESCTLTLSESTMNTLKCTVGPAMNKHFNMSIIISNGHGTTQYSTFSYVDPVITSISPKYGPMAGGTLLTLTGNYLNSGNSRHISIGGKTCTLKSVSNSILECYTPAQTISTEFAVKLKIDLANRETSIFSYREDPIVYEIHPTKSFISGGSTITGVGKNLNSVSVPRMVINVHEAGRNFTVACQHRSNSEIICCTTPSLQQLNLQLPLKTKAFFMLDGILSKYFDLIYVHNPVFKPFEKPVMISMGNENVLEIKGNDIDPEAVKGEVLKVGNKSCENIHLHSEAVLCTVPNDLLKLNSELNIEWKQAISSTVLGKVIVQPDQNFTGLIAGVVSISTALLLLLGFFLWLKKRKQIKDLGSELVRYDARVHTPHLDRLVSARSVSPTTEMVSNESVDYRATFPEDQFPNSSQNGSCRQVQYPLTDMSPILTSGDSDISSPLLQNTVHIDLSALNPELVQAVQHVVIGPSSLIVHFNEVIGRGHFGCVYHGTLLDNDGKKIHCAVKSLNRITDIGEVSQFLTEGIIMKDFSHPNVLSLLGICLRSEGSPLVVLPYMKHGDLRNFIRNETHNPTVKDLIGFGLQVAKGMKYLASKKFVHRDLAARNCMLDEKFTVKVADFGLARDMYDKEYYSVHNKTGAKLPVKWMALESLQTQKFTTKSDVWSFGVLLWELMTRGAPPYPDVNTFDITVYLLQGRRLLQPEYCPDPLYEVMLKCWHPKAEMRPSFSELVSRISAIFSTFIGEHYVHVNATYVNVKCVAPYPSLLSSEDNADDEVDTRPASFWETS

Substance | Endocytosis ratio% at 0 h, EBC-1 cells, 20 nM, flow cytometry | Endocytosis ratio% at 0.5 h, EBC-1 cells, 20 nM, flow cytometry | Endocytosis ratio% at 2 h, EBC-1 cells, 20 nM, flow cytometry | Endocytosis ratio% at 4 h, EBC-1 cells, 20 nM, flow cytometry | Endocytosis ratio% at 24 h, EBC-1 cells, 20 nM, flow cytometry
Teli-VcMMAE (antibody) | 0% | 4.36% | 31.7% | 58% | 97.3%
ABT-700 (antibody) | 0% | 5.54% | 29.3% | 54.2% | 97.8%
